Measured values reported in paper PMC5743070 (The Journal of Biological Chemistry, 2017).

Columns and labels:
TTD (UHRF1_121–286) [1] = target: T1, TTD (UHRF1_121–286) (Homo sapiens, UniProt Q96T88); assay: HSQC competition of BPC and linker peptide on TTD; format: binding; conditions: BPC 2.4 mM, linker peptide 3.0 mM, 5% DMSO; I211, I212 and E281 resonances in HSQC
T1 construct: UHRF1_121–286 corresponding to the TTD; made in house
T1 sequence (Q96T88 121-286): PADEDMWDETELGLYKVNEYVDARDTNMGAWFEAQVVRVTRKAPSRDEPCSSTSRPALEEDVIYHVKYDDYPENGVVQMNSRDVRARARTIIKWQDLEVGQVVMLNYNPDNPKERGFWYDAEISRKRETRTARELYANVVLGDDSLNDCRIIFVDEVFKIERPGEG
Protocol: NMR samples were buffered in 20 mM sodium phosphate (pH 7.5), 150 mM NaCl, 5 mM DTT, 5 mM β-mercaptoethanol, 2 mM TCEP, and 10 μM ZnSO4. The protein concentration was between 200 and 300 μM for all samples. The data were collected at 25 °C on Bruker spectrometers equipped with cryoprobes and operating at 500, 600, or 800 MHz. The assignment of backbone TTD–PHD resonances was accomplished using the ABACUS method ([29]) for which standard backbone and ^15N-edited NOESY spectra were collected using ^15N/^13C/^2H- or ^15N/^13C-labeled protein. All 3D experiments were acquired using non-uniform sampling and processed using the software MDDGUI ([30]) or qMDD ([31]). ^15N-Labeled TTD–PHD was used to acquire ^15N T1 and T2 relaxation and ^1H-^15N heteronuclear NOE measurements ([32]) collected using standard Bruker pulse schemes in an interleaved manner. For T1 measurements, the variable delay was set to 0.1, 0.4, 0.8, 1.5, 2.0, 2.5, 3.5, and 5 s. For T2 measurements, the variable delay was set to 16, 32, 48, 64, 80, 96, 128, and 144 ms. The D1 was 3 s for all experiments. Reported values were the average from two measurements. All spectra were processed using NMRPipe ([33]) and analyzed with SPARKY ([34]). […]
trated by the perturbation of I211, I212 and E281 resonances in HSQC spectra of the TTD in a competition assay. […]

TTD (UHRF1_121–286) [2] = target: T1, TTD (UHRF1_121–286); assay: (1H-15N) HSQC NMR titration of TTD; format: binding; conditions: (1H-15N) HSQC spectra of TTD
Description: We designed a fragment library containing 2,040 compounds that was initially screened against isolated TTD (UHRF1_121–286) using a fluorescence polarization (FP) assay that tracked the displacement of a N-terminally tagged H3K9me3 peptide (H3K9me3(1–25)). From this screen, eight putative TTD-binding hits were identified. […] Because of limited commercial availability of the tricyclic amine, we focused only on BPC. The binding of this compound occurs close to (or within) the Arg^296-binding pocket; we observe significant perturbation of Trp^238 and Phe^278 resonances that form part of the pocket, and in Gly^236, which is directly adjacent to it (Fig. 4A and supplemental Fig. S5). We also see chemical shift changes in non-surface exposed residues that are close to or are in contact with the groove.
(§1) NMR samples were buffered in 20 mM sodium phosphate (pH 7.5), 150 mM NaCl, 5 mM DTT, 5 mM β-mercaptoethanol, 2 mM TCEP, and 10 μM ZnSO4. The protein concentration was between 200 and 300 μM for all samples. The data were collected at 25 °C on Bruker spectrometers equipped with cryoprobes and operating at 500, 600, or 800 MHz. The assignment of backbone TTD–PHD resonances was accomplished using the ABACUS method ([29]) for which standard backbone and ^15N-edited NOESY spectra were collected using ^15N/^13C/^2H- or ^15N/^13C-labeled protein. All 3D experiments were acquired using non-uniform sampling and processed using the software MDDGUI ([30]) or qMDD ([31]). ^15N-Labeled TTD–PHD was used to acquire ^15N T1 and T2 relaxation and ^1H-^15N heteronuclear NOE measurements ([32]) collected using standard Bruker pulse schemes in an interleaved manner. For T1 measurements, the variable delay was set to 0.1, 0.4, 0.8, 1.5, 2.0, 2.5, 3.5, and 5 s. For T2 measurements, the variable delay was set to 16, 32, 48, 64, 80, 96, 128, and 144 ms. The D1 was 3 s for all experiments. Reported values were the average from two measurements. All spectra were processed using NMRPipe ([33]) and analyzed with SPARKY ([34]).
Figure S5 (related to Fig. 4)
Binding of BPC in the groove of TTD. […]
labeled (at the N-terminus) H3K9me3(1-25) peptide, (B) ITC, and (C) DSF. (D) KD estimates of BPC bind-ing based on I211 and Y239 amide peak movement (where Δ(ppm) = ((ΔδHN)2 + (ΔδN/6.5)2 )1⁄2) in (1H-15N) HSQC spectra when the TTD is titrated with BPC. […]
as a function of TTD sequence resulting from BPC (blue) or PBR peptide (red) binding. (F) HSQC overlays […]
ment:protein), and PBR peptide ratios (bottom spectrum - from 1:1 to 5:1 peptide:protein). The protein con-centration was ~250 µM for all NMR experiments, and the DMSO concentration was 5% for NMR titrations […]
(§2) (1 picture or pasted object on this page, not shown here)

TTD–PHD (UHRF1_126–366) [3] = target: T2, TTD–PHD (UHRF1_126–366) (Homo sapiens, UniProt Q96T88); assay: ITC of H3 peptide binding to TTD–PHD
T2 construct: His tag (TEV-cleavable) (N); made in house
T2 sequence (Q96T88 126-366): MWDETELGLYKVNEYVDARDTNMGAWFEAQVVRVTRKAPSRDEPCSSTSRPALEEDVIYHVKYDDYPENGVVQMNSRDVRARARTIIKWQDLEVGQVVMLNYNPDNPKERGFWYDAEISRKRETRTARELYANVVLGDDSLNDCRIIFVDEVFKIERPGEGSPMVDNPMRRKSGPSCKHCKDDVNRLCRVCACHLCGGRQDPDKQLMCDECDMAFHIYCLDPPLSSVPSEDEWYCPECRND
Protocol: A preliminary peptide injection of 0.06 μl was followed by subsequent 2-μl injections into the sample cell containing 167 μl of 50 μM TTD–PHD. Where indicated, 1.5 mM BPC or 1.5 mM PBR peptide was included in the injection syringe and sample cell. The reported KD and n values are based on the average from two measurements. For ITC measurements of TTD (UHRF1_121–286) interaction with BPC, the protein was buffered in 20 mM Tris (pH 7.4), 50 mM NaCl, and 5% DMSO. BPC was brought to a concentration of 2.5 mM and injected into the sample cell containing 40 μM protein. The data were acquired on a Nano ITC from TA Instruments at 25 °C and fitted with an independent-binding site model using NanoAnalyze software (v3.7.0).
ITC curves showing TTD-PHD binding to methylated (red) and unmethylated (black) H3 peptide.
as §2

TTD–PHD (UHRF1_126–366) [4] = target: T2, TTD–PHD (UHRF1_126–366); assay: (1H-15N) TROSY NMR titration of TTD–PHD; format: binding
Protocol: Exchange broadening is clearly observed for Arg^282, Gly^284, Asp^291, Asn^292, Met^294, and Ser^301 amide resonances at 1:3 protein/BPC ratios, with perturbations also seen with Gly^286 and Gly^299 (Fig. 4 and supplemental Fig. S6).
as §1

Row | Substance | competition for the TTD groove (TTD (UHRF1_121–286) [1]) | binding site on TTD by amide peak movement (TTD (UHRF1_121–286) [2]) | effect on TTD–PHD binding affinity for the histone peptide (TTD–PHD (UHRF1_126–366) [3]; 1.5 mM BPC (4% DMSO) or 1.5 mM PBR peptide, H3K9me3(1–15)) | increase of KD for H3K9me3 (effect of added ligand) (TTD–PHD (UHRF1_126–366) [3]; 1.5 mM BPC or PBR peptide in syringe and cell, vs apo TTD–PHD) | effect on linker resonances of TTD–PHD (TTD–PHD (UHRF1_126–366) [4]; (1H-15N) TROSY, ~250 μM protein/750 μM ligand) | effect on TTD–PHD conformation (TTD–PHD (UHRF1_126–366) [4]; Fig. 4)
1 | linker peptide: linker peptide (corresponding to UHRF1286-300) (GSPMVDNPMRRKSGP; UniProt Q96T88 286-300, looked up, fragment) [reference compound] | compete directly for the TTD groove | – | – | – | – | –
2 | PBR peptide: 15-residue peptide corresponding to the PBR (UHRF1_643–657) (GKGKWKRKSAGGGPS; UniProt Q96T88 643-657, looked up, fragment) [reference compound] | – | binding in the groove | reduces the TTD–PHD binding affinity for the histone peptide | ~5 fold | strikingly similar peak broadening/perturbation pattern | promote open TTD–PHD conformations
